Experimental data as given in US20240417475A1 (AFFIMED, published 2024).
Blank lines part the entries; values can stand above or below the binder they belong to.

What was measured:
[1] = target: T1, human FOLR1 expressed on CHO cells (cAg_125) (human, UniProt P15328 25-234); experiment: flow cytometry on huFOLR1 CHO cells (cAg_125), one-site fit of MFI, Exp. 1
T1 construct: whole, on cells; also called huFOLR1
Protocol: (§1) To analyze binding of different antibody constructs to CHO cells transfected with human FOLR1 (cAg_125) and cynomolgus FOLR1 (cAg_126), 1-5×10⁵ were resuspended in 100 μL FACS buffer (PBS (BioWest, cat.: L0615-500) containing 2% heat-inactivated FCS (Invitrogen, cat.: 10500-064), and 0.1% sodium azide (Sigma, cat.: S8032_100G)) in round-bottom 96-well microtiter plates. After washing in FACS buffer, cells were incubated in 50 μL FACS buffer without antibodies or with titrated antibodies starting at a concentration of 1000 nM followed by eleven 3-fold serial dilutions for 40-50 min on ice in the dark. […] After washing, binding was measured by flow cytometry and mean fluorescence intensities (MFI) of cell samples were calculated and corrected for background staining using control cells stained with secondary antibodies only.
(§2) Binding of antibody constructs to huFOLR1-as well as cyFOLR1-transfected CHO cells was measured by flow cytometry. Equilibrium dissociation constants (KD) of antibody binding were calculated by plotting MFI values and fitting a non-linear regression model for one-site binding to hyperbolic dose-response curves using GraphPad Prism.

[2] = target: T2, cynomolgus FOLR1 expressed on CHO cells (cAg_126) (cynomolgus, UniProt A0A2K5U044 25-234); experiment: flow cytometry on cyFOLR1 CHO cells (cAg_126), one-site fit of MFI, Exp. 2
T2 construct: whole, on cells; also called cyFOLR1
T2 sequence (A0A2K5U044 entry or part of it): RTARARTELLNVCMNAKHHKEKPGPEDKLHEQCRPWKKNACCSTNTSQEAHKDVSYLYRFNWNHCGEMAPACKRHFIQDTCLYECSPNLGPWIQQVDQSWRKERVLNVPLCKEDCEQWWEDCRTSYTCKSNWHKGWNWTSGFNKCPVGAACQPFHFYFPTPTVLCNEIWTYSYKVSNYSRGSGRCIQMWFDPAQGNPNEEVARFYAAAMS
Protocol: as §1, §2

[3] = target: T1, human FOLR1 expressed on CHO cells …; experiment: flow cytometry on huFOLR1-transfected CHO cells (cAg_125), on ice, FITC goat anti-human IgG detection
Protocol: as §1

[4] = target: T3, human CD16A (158V) expressed on CHO cells (cAg_35) (human, UniProt P08637 17-254); experiment: flow cytometry on huCD16A (158V) CHO cells (cAg_35), one-site fit of MFI, mean
T3 construct: also called huCD16A (158V)
T3 sequence (P08637 17-254 F176V limits assumed): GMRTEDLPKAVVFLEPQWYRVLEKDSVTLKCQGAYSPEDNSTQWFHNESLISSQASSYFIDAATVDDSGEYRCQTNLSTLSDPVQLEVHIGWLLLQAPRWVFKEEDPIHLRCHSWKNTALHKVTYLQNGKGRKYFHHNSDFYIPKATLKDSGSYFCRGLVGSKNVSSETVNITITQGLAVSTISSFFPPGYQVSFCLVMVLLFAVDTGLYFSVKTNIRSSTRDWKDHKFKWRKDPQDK
Protocol: (§3) After washing in FACS buffer, cells were incubated in 50 μL FACS buffer without antibodies or with titrated antibodies starting at a concentration of 1000 nM followed by elven 3-fold serial dilutions for 40-50 min on ice in the dark. […] After washing, binding was measured by flow cytometry and mean fluorescence intensities (MFI) of cell samples were calculated and corrected for background staining using control cells stained with secondary antibodies only.
(§4) Equilibrium dissociation constants (KD) of antibody binding were calculated by plotting MFI values and fitting a non-linear regression model for one-site binding to hyperbolic dose-response curves using GraphPad Prism.

[5] = target: T4, human CD16A (158F) expressed on CHO cells (cAg_34) (human, UniProt P08637 17-254); experiment: flow cytometry on huCD16A (158F)-transfected CHO cells (cAg_34), on ice, FITC goat anti-human IgG detection
T4 construct: also called huCD16A-transfected CHO cells
T4 sequence (P08637 17-254 limits assumed): as the sequence (P08637 17-254 F176V limits assumed) above, with V160F counted along it
Protocol: as §3

[6] = target: human FOLR1 endogenously expressed on tumor cell lines (human, UniProt P15328 25-234); experiment: cell-based or functional assay
Sequence of human FOLR1 endogenously expressed on tumor cell lines (P15328 25-234): as the sequence (A0A2K5U044 entry or part of it) above, with T2I, R4W, K37R, P146A, Y171H counted along it

[7] = target: T5, cynomolgus CD16 expressed on CHO cells (cAg_36) (cynomolgus, UniProt Q8SPW2 17-254); experiment: flow cytometry on cyCD16 CHO cells (cAg_36), one-site fit of MFI, Exp. 1
T5 construct: whole, on cells; also called cyCD16
T5 sequence (Q8SPW2 17-254): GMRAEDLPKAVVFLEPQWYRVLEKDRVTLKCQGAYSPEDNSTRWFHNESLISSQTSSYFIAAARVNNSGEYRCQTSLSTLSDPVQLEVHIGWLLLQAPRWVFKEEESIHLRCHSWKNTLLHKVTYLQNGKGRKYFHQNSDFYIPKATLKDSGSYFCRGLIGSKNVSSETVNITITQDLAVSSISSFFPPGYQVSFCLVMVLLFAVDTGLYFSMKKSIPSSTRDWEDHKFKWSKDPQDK
Protocol: as §3, §4

[8] = target: T5, cynomolgus CD16 expressed on CHO cells …; experiment: flow cytometry on cyCD16-transfected CHO cells (cAg_36), on ice, FITC goat anti-human IgG detection
Protocol: as §3

[9] = target: T5, cynomolgus CD16 expressed on CHO cells …; experiment: flow cytometry on cyCD16 CHO cells (cAg_36), one-site fit of MFI, Exp. 2
Protocol: as §3, §4

[10] = target: CD16A endogenously expressed on primary human NK cells (human, UniProt P08637 17-254); experiment: flow cytometry on primary human NK cells at 37 °C, biotinylated antibody, streptavidin-FITC, in the presence of 10 mg/mL polyclonal human IgG (competitor)
Sequence of CD16A endogenously expressed on primary human NK cells (P08637 17-254 limits assumed): as the sequence (P08637 17-254 F176V limits assumed) above, with V160F counted along it
Protocol: Frozen NK cells were thawed, and viability was determined with trypan blue (Sigma-Aldrich, cat.: T8154). Cells have been centrifuged at 400×g, 5 min, 4° C. Cell pellets were resuspended in FACS buffer PBS (Invitrogen, cat.: 392-0434) containing 2% h.i. FCS (Invitrogen, cat.: 10500-064), and 0.1% sodium azide (Sigma, cat.: S8032) at 2×10⁶ cells/mL. 100 μL/well of the cell suspension were transferred into U-shaped 96 well plates, cells were pelleted at 400×g, 5 min. 4° C., and resuspended in 50 μL/well of diluted antibody constructs. […] After 40-50 minutes' incubation at 37° C., cells were washed 3-times with ice-cold FACS buffer. […] After the final incubation step, cells were washed 2-times with ice-cold FACS buffer, and the cell pellet was resuspended in 50 μL FACS buffer. Fluorescence intensity of >1×10⁴ viable cells was analyzed by flow cytometry and the median fluorescence intensity (MFI) was determined for each sample.

T1 sequence (P15328 25-234): as the sequence (A0A2K5U044 entry or part of it) above, with T2I, R4W, K37R, P146A, Y171H counted along it

Kd [1]: 35.1 nM | Kd [2]: 15.3 nM | EC50 (read off the curve) [3]: ~40 nM | Kd [4]: 30.8 nM | EC50 (read off the curve) [5]: ~20 nM | EC50 [pM] of ADCC, 4 h calcein release, NK cells E:T 5:1, IGROV-1 cells [6]: 1 pM | EC50 [pM] of ADCC, A2780 cells [6]: 5.5 pM | EC50 [pM] of ADCC, HCC-827 cells [6]: 2.8 pM | EC50 [pM] of ADCC, MDA-MB-231 cells [6]: 6.5 pM | EC50 [pM] of ADCC, NCI-H2110 cells [6]: 0.8 pM | EC50 [pM] of ADCC, OVCAR-3 cells [6]: 1.1 pM | fold-improvement in efficacy vs IgAb_335, ADCC, A2780 cells [6]: 2.9 fold | fold-improvement in efficacy vs IgAb_335, ADCC, HCC-827 cells [6]: 1.9 fold | fold-improvement in efficacy vs IgAb_335, ADCC, IGROV-1 cells [6]: 0.9 fold | fold-improvement in efficacy vs IgAb_335, ADCC, MDA-MB-231 cells [6]: 2.1 fold | fold-improvement in efficacy vs IgAb_335, ADCC, NCI-H2110 cells [6]: 1.2 fold | fold-improvement in efficacy vs IgAb_335, ADCC, OVCAR-3 cells [6]: 1.4 fold | fold-improvement in potency vs IgAb_335, ADCC, A2780 cells [6]: 593 fold | fold-improvement in potency vs IgAb_335, ADCC, HCC-827 cells [6]: 30.8 fold | fold-improvement in potency vs IgAb_335, ADCC, IGROV-1 cells [6]: 15.1 fold | fold-improvement in potency vs IgAb_335, ADCC, MDA-MB-231 cells [6]: 54 fold | fold-improvement in potency vs IgAb_335, ADCC, NCI-H2110 cells [6]: 34.4 fold | fold-improvement in potency vs IgAb_335, ADCC, OVCAR-3 cells [6]: 40.4 fold | Kd [7]: 26.6 nM | EC50 (read off the curve) [8]: ~30 nM | Kd [9]: 26.2 nM | EC50 (read off the curve) [10]: ~20 nM
B1: scFv-IgAb_387 (FOLR1_1×CD16a3) (bispecific antibody)
heavy: EVQLVESGGGVVQPGRSLRLSCSASGFTFSGYGLSWVRQAPGKGLEWVAMISSGGSYTYYADSVKGRFAISRDNAKNTLFLQMDSLRPEDTGVYFCARHGDDPAWFAYWGQGTPVTVSSASTKGPSVFPLAPSSKSTSGGTAALGCLVKDYFPEPVTVSWNSGALTSGVHTFPAVLQSSGLYSLSSVVTVPSSSLGTQTYICNVNHKPSNTKVDKKVEPKSCDKTHTCPPCPAPEFEGGPSVFLFPPKPKDTLMISRTPEVTCVVVAVSHEDPEVKFNWYVDGVEVHNAKTKPREEQYNSTYRVVSVLTVLHQDWLNGKEYKCKVSNKALPAPIEKTISKAKGQPREPQVYTLPPSREEMTKNQVSLTCLVKGFYPSDIAVEWESNGQPENNYKTTPPVLDSDGSFFLYSKLTVDKSRWQQGNVFSCSVMHEALHNHYTQKSLSLSPGGGGGSGGGGSGGGGSGGGGSGGGGSGGGGSSYELTQPLSVSVALGQTARITCGGNNIGSKSVHWYQQKPGQAPVLVIYQDKKRPSGIPERFSGSNSGNTATLTISRAQAGDEADYYCQVWDDYIVLFGCGTKLTVLGGSGGSGGSGGSGGSGGSGGSQVQLVQSGAEVKKPGASVKVSCKASGYTFTNYYMQWVRQAPGQCLEWMGIINPSGGVTSYAQKFQGRVTMTRDTSTSTVYMELSSLRSEDTAVYYCARGSAYYYDFADYWGQGTLVTVSSG
light: DIQLTQSPSSLSASVGDRVTITCSVSSSISSNNLHWYQQKPGKAPKPWIYGTSNLASGVPSRFSGSGSGTDYTFTISSLQPEDIATYYCQQWSSYPYMYTFGQGTKVEIKRTVAAPSVFIFPPSDEQLKSGTASVVCLLNNFYPREAKVQWKVDNALQSGNSQESVTEQDSKDSTYSLSSTLTLSKADYEKHKVYACEVTHQGLSSPVTKSFNRGEC
modifications: Chemically biotinylated (NHS-PEG4-biotin) in Example 22 only.
notes: Tetravalent bispecific scFv-IgAb; also called FOLR1×CD16A scFv-IgAb_387; FOLR1/CD16A scFv-IgAb_387; copies: 2 + 2

Kd [1]: 20.3 nM | Kd [2]: 11.8 nM | EC50 (read off the curve) [3]: ~30 nM | Kd [4]: 43 nM | EC50 (read off the curve) [5]: ~30 nM | Kd [7]: 38.6 nM | EC50 (read off the curve) [8]: ~40 nM | Kd [9]: 31.7 nM
B2: scFv-IgAb_381 (FOLR1_1×CD16a4) (bispecific antibody)
chain 1: EVQLVESGGGVVQPGRSLRLSCSASGFTFSGYGLSWVRQAPGKGLEWVAMISSGGSYTYYADSVKGRFAISRDNAKNTLFLQMDSLRPEDTGVYFCARHGDDPAWFAYWGQGTPVTVSSASTKGPSVFPLAPSSKSTSGGTAALGCLVKDYFPEPVTVSWNSGALTSGVHTFPAVLQSSGLYSLSSVVTVPSSSLGTQTYICNVNHKPSNTKVDKKVEPKSCDKTHTCPPCPAPEFEGGPSVFLFPPKPKDTLMISRTPEVTCVVVAVSHEDPEVKFNWYVDGVEVHNAKTKPREEQYNSTYRVVSVLTVLHQDWLNGKEYKCKVSNKALPAPIEKTISKAKGQPREPQVYTLPPSREEMTKNQVSLTCLVKGFYPSDIAVEWESNGQPENNYKTTPPVLDSDGSFFLYSKLTVDKSRWQQGNVFSCSVMHEALHNHYTQKSLSLSPGGGGGSGGGGSGGGGSGGGGSGGGGSGGGGSSYELTQPLSVSVALGQTARITCGGHNIGSKNVHWYQQKPGQAPVLVIYQDNKRPSGIPERFSGSNSGNTATLTISRAQAGDEADYYCQVWDNYNVLFGCGTKLTVLGGSGGSGGSGGSGGSGGSGGSQVQLVQSGAEVKKPGASVKVSCKASGYTFTSYYMHWVRQAPGQCLEWMGAIEPTYGSTSYAQKFQGRVTMTRDTSTSTVYMELSSLRSEDTAVYYCARGSAYYYDFADYWGQGTLVTVS
chain 2: B1 light
notes: also called FOLR1×CD16A scFv-IgAb_381
